Experimental data taken from paper PMC11001878, “Engineering an artificial catch bond using mechanical anisotropy” (Nature Communications, 2024).

Tests used:
[1] = biological target: DocG-FLN-ELP-ybbr (Ruminococcus champanellensis); assay: AFM single-molecule force spectroscopy; constant pulling speed (100, 400, 800, 3200 nm/s); both partners tethered through ybbr tags, CohE on the cantilever and DocG on the glass; dwell 200 ms; TBS Ca buffer (25 mM Tris, 72 mM NaCl, 1 mM CaCl2, pH 7.2); zero-force off rate k0 from a Bell-Evans fit, one for each unbinding pathway
[2] = biological target: ybbr-ELP-FLN-DocG (Ruminococcus champanellensis); assay: as above
[3] = biological target: T1, DocG A77C mutant protein labeled with Cy3b (Ruminococcus champanellensis, A77C, Cy3b (maleimide-conjugated) on the cysteine at 77); assay: MST; 20 nM Cy3b-labelled DocG A77C mixed with a series of CohE, 16 samples, 0.0763 nM to 2.5 µM; Nanotemper Monolith NT.115; conditions: both partners purified
T1 chain: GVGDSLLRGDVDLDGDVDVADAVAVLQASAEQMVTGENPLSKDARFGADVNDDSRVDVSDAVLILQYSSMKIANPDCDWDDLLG

Molecule: CohE-FLN-ELP-ybbr (domain or fragment)
- log(k0), high force pathway [1]: -7
- log(k0), low force pathway [1]: -31
- log(k0), high force pathway [2]: -7
- log(k0), low force pathway [2]: -9

Molecule: ybbr-ELP-FLN-CohE (domain or fragment)
- log(k0), single pathway [2]: -4.2

B1: CohE wild-type (domain or fragment)
chain: LSMDQKFAEPGETVEIALNLENFDASWTGLEFLVNYDPKLEVALDGAGDIDYSYGDAIGAMGKKISVGGAISKDLTADGLKGFAFAWGTATAISGNGQLGVFKFTVPADAQPGDEFPVNLTVNVGSFIDANKENIPFETVNGWIKI
- Kd [3]: 14 ± 4 nM

B2: CohE F13AzF-Fgβ (domain or fragment)
chain 1: B1 chain
chain 2: NEEGFFSARGHRPLDGSWSHPQFEKGSGSC
modifications: azido-phenylalanine (AzF) at 13, covalently conjugated by the azide-DBCO click reaction with the Fgβ-StrepTag-DBCO peptide | C-terminal cysteine bearing DBCO, linked to the azide of AzF13 of the CohE chain
- Kd [3]: 40 ± 8 nM

B3: CohE K87AzF-Fgβ (domain or fragment)
chain 1: B1 chain
chain 2: B2 chain 2
modifications: azido-phenylalanine (AzF) at 87, covalently conjugated by the azide-DBCO click reaction with the Fgβ-StrepTag-DBCO peptide | C-terminal cysteine bearing DBCO, linked to the azide of AzF87 of the CohE chain
- Kd [3]: 19 ± 10 nM
